Test results taken from publication PMC3081289.
Changes are numbered by the printed parent chain. Names and notes keep the numbering of the source.

T1: Vascular Endothelial Growth Factor (VEGF), receptor binding domain, VEGF_(8–109)
T1 chain: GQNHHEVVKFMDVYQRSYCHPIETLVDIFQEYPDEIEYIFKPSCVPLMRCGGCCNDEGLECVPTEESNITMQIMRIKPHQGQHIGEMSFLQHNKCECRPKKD

B1: bH1-44 Fab (affinity-improved variant of bH1) HC:R50A; HC:R58A (protein)
chain 1: EVQLVESGGGLVQPGGSLRLSCAASGFNISGTYIHWVRQAPGKGLEWVAAIYPSEGYTAYADSVKGRFTISADTSKNTAYLQMNSLRAEDTAVYYCSRWVGVGFYAMDYWGQGTLVTVSS
chain 2: DIQMTQSPSSLSASVGDRVTITCRASQNIAKTISGYVAWYQQKPGKAPKLLIYWGSFLYSGVPSRFSGSGSGTDFTLTISSLQPEDFATYYCQQHYSSPPTFGQGTKVEIK
B2: bH1-44 Fab (affinity-improved variant of bH1) LC:Y32A (protein)
chain 1: B1 chain 1 with A50R, A59R
chain 2: B1 chain 2 with Y36A

What was measured:
[1] = target: T1, Vascular Endothelial Growth Factor …; assay: SPR; conditions: chain shown with the change; for response (Response Units): 0.5 µM Fab, parent: est. 690, read off a plot
[2] = target: T1, Vascular Endothelial Growth Factor …; assay: SPR (ΔG derived from KD); conditions: chain shown with the change; 30°C, phosphate buffer (pH 7.4); parent: est. -12 kcal/mol; read off a plot
[3] = target: T1, Vascular Endothelial Growth Factor …; assay: calculated from ΔG (SPR) and ΔH (ITC); conditions: chain shown with the change; 30°C, phosphate buffer (pH 7.4); parent: est. -4.4 kcal/mol; read off a plot
[4] = 30°C, Fab over immobilized antigen

Row | Binder | response (Response Units) [1] | Kd [1, 4] [nM] | koff [1, 4] | dG [2] [kcal/mol] | other: -TΔS [3] [kcal/mol]
1 | B1 | 600 | 3 | 10 10^-4 s-1 | -12 | -3.7
2 | B2 | 60 | – | – | – | –
